In patent US20260191981A1 (ARROWHEAD PHARMACEUTICALS, published 2026):

How the values were obtained:
[1] = target: T1, biotinylated cTfR1 (Acro Bio p/n TFR-C8249) (cynomolgus monkey, UniProt H9EXL1 89-760 (rhesus entry), biotinylated; site not stated); test: BLI, Octet RH16, biotinylated TfR1 on streptavidin sensor; Fab-siRNA conjugate
T1 construct: Bought reagent of the BLI assay
Experimental: Samples were analyzed via Bio-Layer Interferometry (BLI) to determine kinetics against cynomolgus monkey transferrin receptor 1 (cTfR1). Briefly, an Octet RH16 (Sartorius) was used for BLI measurements using streptavidin biosensors (Sartorius p/n 18-5019) to irreversibly immobilize biotinylated cTfR1 (Acro Bio p/n TFR-C8249). […] Sample diluent was prepared in house and is composed of 10 mM PBS pH 7.4 (150 mM NaCl), 0.01% BSA, 0.002% Tween 20, and 0.01% kathon. A 96-well plate was used for analysis, filled with required samples solutions and a row of 10 μg/mL cTfR1 for loading of the streptavidin sensors. For each sample, one well was reserved for a reference sensor control (non-specific binding evaluation with no cTfR1 on surface in highest sample concentration) and a sample reference (buffer only on a cTfR1 loaded sample). One well was also reserved for a second replicate of one of the five concentrations to evaluate sensor and method variability. Eight channels were used for the highest sensitivity offered by the Octet RH16. For each assay performed, the steps were as follows: a sensor check for baseline evaluation of sensor alone in buffer was performed for 30 seconds, followed by loading of the cTfR1 for 60 seconds, then a baseline check for 90 seconds to verify stability of cTfR1 immobilized to sensor surface, then sample association for 180 seconds, and finally sample dissociation for 300 seconds. A shake speed of 1000 was used for all steps. Sample results were analyzed in Octet Analysis software.

[2] = target: T2, biotinylated hTfR1 (Acro Bio p/n TFR-H82E5) (human, UniProt P02786 89-760, biotinylated; site not stated); test: as above
T2 construct: Bought reagent of the BLI assay
Experimental: Samples were analyzed via Bio-Layer Interferometry (BLI) to determine kinetics against human transferrin receptor 1 (hTfR1). Briefly, an Octet RH16 (Sartorius) was used for BLI measurements using streptavidin biosensors (Sartorius p/n 18-5019) to irreversibly immobilize biotinylated hTfR1 (Acro Bio p/n TFR-H82E5). […] Sample diluent was prepared in house and is composed of 10 mM PBS pH 7.4 (150 mM NaCl), 0.01% BSA, 0.002% Tween 20, and 0.01% kathon. A 96-well plate was used for analysis, filled with required samples solutions and a row of 10 μg/mL hTfR1 for loading of the streptavidin sensors. For each sample, one well was reserved for a reference sensor control (non-specific binding evaluation with no hTfR1 on surface in highest sample concentration) and a sample reference (buffer only on a hTfR1 loaded sample). One well was also reserved for a second replicate of one of the five concentrations to evaluate sensor and method variability. Eight channels were used for the highest sensitivity offered by the Octet RH16. For each assay performed, the steps were as follows: a sensor check for baseline evaluation of sensor alone in buffer was performed for 30 seconds, followed by loading of the cTfR1 for 60 seconds, then a baseline check for 90 seconds to verify stability of cTfR1 immobilized to sensor surface, then sample association for 180 seconds, and finally sample dissociation for 300 seconds. A shake speed of 1000 was used for all steps. Sample results are analyzed in Octet Analysis software.

T1 sequence (chain, as listed by the source): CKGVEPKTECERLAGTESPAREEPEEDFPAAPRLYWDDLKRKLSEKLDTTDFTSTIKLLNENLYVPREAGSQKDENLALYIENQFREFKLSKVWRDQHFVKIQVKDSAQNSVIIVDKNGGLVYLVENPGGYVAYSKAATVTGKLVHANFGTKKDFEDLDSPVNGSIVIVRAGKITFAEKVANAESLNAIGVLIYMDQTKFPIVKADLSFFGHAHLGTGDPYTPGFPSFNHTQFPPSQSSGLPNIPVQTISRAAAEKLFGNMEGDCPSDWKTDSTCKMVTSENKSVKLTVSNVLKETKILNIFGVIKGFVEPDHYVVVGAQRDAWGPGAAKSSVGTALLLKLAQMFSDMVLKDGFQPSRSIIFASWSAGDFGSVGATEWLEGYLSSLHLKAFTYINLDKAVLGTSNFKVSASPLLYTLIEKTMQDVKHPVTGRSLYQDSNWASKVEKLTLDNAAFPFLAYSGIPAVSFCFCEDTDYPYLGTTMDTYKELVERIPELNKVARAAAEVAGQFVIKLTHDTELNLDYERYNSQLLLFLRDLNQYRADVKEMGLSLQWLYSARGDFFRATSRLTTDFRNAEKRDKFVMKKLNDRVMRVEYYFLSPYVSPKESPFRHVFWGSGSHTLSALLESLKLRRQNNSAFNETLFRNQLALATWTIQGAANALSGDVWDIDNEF
T2 sequence (P02786 89-760 limits assumed): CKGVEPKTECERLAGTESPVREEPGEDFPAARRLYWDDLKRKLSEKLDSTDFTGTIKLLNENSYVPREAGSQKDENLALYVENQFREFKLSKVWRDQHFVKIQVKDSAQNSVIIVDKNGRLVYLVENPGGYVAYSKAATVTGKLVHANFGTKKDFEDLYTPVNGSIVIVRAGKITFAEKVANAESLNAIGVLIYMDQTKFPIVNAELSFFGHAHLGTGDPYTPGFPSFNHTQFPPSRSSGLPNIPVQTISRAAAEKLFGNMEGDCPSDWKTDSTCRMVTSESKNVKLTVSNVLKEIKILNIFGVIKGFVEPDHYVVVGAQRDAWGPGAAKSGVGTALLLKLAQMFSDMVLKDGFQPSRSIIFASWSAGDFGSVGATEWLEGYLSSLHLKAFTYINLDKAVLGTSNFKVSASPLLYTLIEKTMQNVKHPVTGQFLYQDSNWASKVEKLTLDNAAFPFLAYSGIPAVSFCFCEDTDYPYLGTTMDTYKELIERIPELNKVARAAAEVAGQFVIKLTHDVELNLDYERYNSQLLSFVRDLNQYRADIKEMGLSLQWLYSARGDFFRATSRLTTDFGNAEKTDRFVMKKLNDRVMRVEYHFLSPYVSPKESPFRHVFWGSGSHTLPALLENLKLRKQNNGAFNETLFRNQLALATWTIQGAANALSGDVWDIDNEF

Binder | Kd [1] [nM] | koff [1] [s⁻¹] | kon [1] [M⁻¹ s⁻¹] | Kd [2] [nM] | koff [2] [s⁻¹] | kon [2] [M⁻¹ s⁻¹]
Fab0061-siRNA conjugate (Fab, V domains shown, siRNA-linker on a reduced cysteine; chain and residue not stated, also called Fab0061 (BLI conjugate columns)) VH: EVQLVESGGGLVQPGGSLRLSCATSGYTFTSYWMHWVRQAPGKGLEWVAEINPTNGRVNYIEKFKSRITLSVDKSKSTVYLQMNSLRAEDTAVYYCARGTRAYHYWGQGTLVTVSS VL: DIQLTQSPSSLSASVGDRVTITCRASDGLYSNLAWYQQKPGKAPKLLIYDATKLASGVPSRFSGSGSGTDYTLTISSLQPEDFATYYCQHFWGTPLTFGQGTKVEIKR | 6.85 | 0.0017 | 248000 | 1.9 | 0.000527 | 278000
Fab0066-siRNA conjugate (Fab, V domains shown, siRNA-linker on a reduced cysteine; chain and residue not stated, also called Fab0066 (BLI conjugate columns)) VH: EVQLVESGGGLVQPGGSLRLSCATSGYTFTSYWVHWVRQAPGKGLEWVAEINPTNGRVNYIEKFKSRITLSVDKSKSTVYLQMNSLRAEDTAVYYCARGTRAYHYWGQGTLVTVSS VL: DIQLTQSPSSLSASVGDRVTITCRASDGLYSNLAWYQQKPGKAPKLLIYDAFNLASGVPSRFSGSGSGTDYTLTISSLQPEDFATYYCQHFWGTPLTFGQGTKVEIKR | 10 | 0.00335 | 334000 | 1.81 | 0.000469 | 259000
Fab0060-siRNA conjugate (Fab, V domains shown, siRNA-linker on a reduced cysteine; chain and residue not stated, also called Fab0060 (BLI conjugate columns)) VH: EVQLVESGGGLVQPGGSLRLSCATSGYTFTSYWVHWVRQAPGKGLEWVAEINPTNGRTNYIEKFKSRITLSVDKSKSTVYLQMNSLRAEDTAVYYCARGTRAYHYWGQGTLVTVSS VL: DIQLTQSPSSLSASVGDRVTITCRASDGLYSNLAWYQQKPGKAPKLLIYDATKLASGVPSRFSGSGSGTDYTLTISSLQPEDFATYYCQHFWGTPLTFGQGTKVEIKR | 9.11 | 0.00252 | 276000 | 3.65 | 0.00109 | 298000
Fab0062-siRNA conjugate (Fab, V domains shown, siRNA-linker on a reduced cysteine; chain and residue not stated, also called Fab0062 (BLI conjugate columns)) VH: EVQLVESGGGLVQPGGSLRLSCATSGYTFTSYWMHWVRQAPGKGLEWVAEINPTNGRVNYIEKFKSRITLSVDKSKSTVYLQMNSLRAEDTAVYYCARGTRAYHYWGQGTLVTVSS VL: DIQLTQSPSSLSASVGDRVTITCRASDGLYSNLAWYQQKPGKAPKLLIYDAFNLASGVPSRFSGSGSGTDYTLTISSLQPEDFATYYCQHFWGTPLTFGQGTKVEIKR | 11 | 0.00263 | 238000 | 4.47 | 0.00123 | 275000
Fab0064-siRNA conjugate (Fab, V domains shown, siRNA-linker on a reduced cysteine; chain and residue not stated, also called Fab0064 (BLI conjugate columns)) VH: EVQLVESGGGLVQPGGSLRLSCATSGYTFTSYWMHWVRQAPGKGLEWVAEINPTNGRVNYIEKFKSRITLSVDKSKSTVYLQMNSLRAEDTAVYYCARGTRAYHYWGQGTLVTVSS VL: DIQLTQSPSSLSASVGDRVTITCRASDGLYSNLAWYQQKPGKAPKLLIYDAKNLASGVPSRFSGSGSGTDYTLTISSLQPEDFATYYCQHFWGTPLTFGQGTKVEIKR | 5.96 | 0.0019 | 319000 | 1.44 | 0.000393 | 273000
Fab0063-siRNA conjugate (Fab, V domains shown, siRNA-linker on a reduced cysteine; chain and residue not stated, also called Fab0063 (BLI conjugate columns)) VH: EVQLVESGGGLVQPGGSLRLSCATSGYTFTSYWMHWVRQAPGKGLEWVAEINPTNGRVNYIEKFKSRITLSVDKSKSTVYLQMNSLRAEDTAVYYCARGTRAYHYWGQGTLVTVSS VL: DIQLTQSPSSLSASVGDRVTITCRASDGLYSNLAWYQQKPGKAPKLLIYDATRLASGVPSRFSGSGSGTDYTLTISSLQPEDFATYYCQHFWGTPLTFGQGTKVEIKR | 8.37 | 0.0022 | 263000 | 2.72 | 0.000775 | 285000
Fab0065-siRNA conjugate (Fab, V domains shown, siRNA-linker on a reduced cysteine; chain and residue not stated, also called Fab0065 (BLI conjugate columns)) VH: EVQLVESGGGLVQPGGSLRLSCATSGYTFTSYWVHWVRQAPGKGLEWVAEINPTNGRSNYIEKFKSRITLSVDKSKSTVYLQMNSLRAEDTAVYYCARGTRAYHYWGQGTLVTVSS VL: DIQLTQSPSSLSASVGDRVTITCRASDNLYRNLAWYQQKPGKAPKLLIYDATKLASGVPSRFSGSGSGTDYTLTISSLQPEDFATYYCQHFWGTPLTFGQGTKVEIKR | 5.63 | 0.0013 | 231000 | 2.64 | 0.00082 | 310000

Second part, the binder after the results:

Kd [1] [nM] | koff [1] [s⁻¹] | kon [1] [M⁻¹ s⁻¹] | Kd [2] [nM] | koff [2] [s⁻¹] | kon [2] [M⁻¹ s⁻¹] | Binder
16.9 | 0.00413 | 244000 | 3.71 | 0.000974 | 263000 | Fab0070-siRNA conjugate (Fab, V domains shown, siRNA-linker on a reduced cysteine; chain and residue not stated, also called Fab0070 (BLI conjugate columns)) VH: EVQLVESGGGLVQPGGSLRLSCATSGFTFTSYWMHWVRQAPGKGLEWVAEINPTNGRTNYIEKFKSRITLSVDKSKSTVYLQMNSLRAEDTAVYYCARGTRAYHYWGQGTLVTVSS VL: DIQLTQSPSSLSASVGDRVTITCRASDKLYSNLAWYQQKPGKAPKLLIYDATLLASGVPSRFSGSGSGTDYTLTISSLQPEDFATYYCQHFWGTPLTFGQGTKVEIKR
5.02 | 0.0019 | 378000 | 0.623 | 0.000167 | 268000 | Fab0067-siRNA conjugate (Fab, V domains shown, siRNA-linker on a reduced cysteine; chain and residue not stated, also called Fab0067 (BLI conjugate columns)) VH: EVQLVESGGGLVQPGGSLRLSCATSGYTFTSYWVHWVRQAPGKGLEWVAEINPTNGRTNYIEKFKSRITLSVDKSKSTVYLQMNSLRAEDTAVYYCARGTRAYHYWGQGTLVTVSS VL: DIQLTQSPSSLSASVGDRVTITCRASDNLYRNLAWYQQKPGKAPKLLIYDATKLASGVPSRFSGSGSGTDYTLTISSLQPEDFATYYCQHFWGTPLTFGQGTKVEIKR
8.89 | 0.00221 | 249000 | 1.69 | 0.000432 | 256000 | Fab0068-siRNA conjugate (Fab, V domains shown, siRNA-linker on a reduced cysteine; chain and residue not stated, also called Fab0068 (BLI conjugate columns)) VH: EVQLVESGGGLVQPGGSLRLSCATSGYTFTSYWVHWVRQAPGKGLEWVAEINPTNGRVNYIEKFKSRITLSVDKSKSTVYLQMNSLRAEDTAVYYCARGTRAYHYWGQGTLVTVSS VL: DIQLTQSPSSLSASVGDRVTITCRASDGLYSNLAWYQQKPGKAPKLLIYDATKLASGVPSRFSGSGSGTDYTLTISSLQPEDFATYYCQHFWGTPLTFGQGTKVEIKR
18.1 | 0.00429 | 234000 | 2.67 | 0.000716 | 268000 | Fab0071-siRNA conjugate (Fab, V domains shown, siRNA-linker on a reduced cysteine; chain and residue not stated, also called Fab0071 (BLI conjugate columns)) VH: EVQLVESGGGLVQPGGSLRLSCATSGYTFNSYWMHWVRQAPGKGLEWVAEINPTNGRTNYIEKFKSRITLSVDKSKSTVYLQMNSLRAEDTAVYYCARGTRAYHYWGQGTLVTVSS VL: DIQLTQSPSSLSASVGDRVTITCRASDGLYSNLAWYQQKPGKAPKLLIYDARNLASGVPSRFSGSGSGTDYTLTISSLQPEDFATYYCQHFWGTPLTFGQGTKVEIKR
9.23 | 0.00321 | 348000 | 2.1 | 0.000615 | 292000 | Fab0073-siRNA conjugate (Fab, V domains shown, siRNA-linker on a reduced cysteine; chain and residue not stated, also called Fab0073 (BLI conjugate columns)) VH: EVQLVESGGGLVQPGGSLRLSCATSGYTFKSYWMHWVRQAPGKGLEWVAEINPTNGRTNYIEKFKSRITLSVDKSKSTVYLQMNSLRAEDTAVYYCARGTRAYHYWGQGTLVTVSS VL: DIQLTQSPSSLSASVGDRVTITCRASDNLYRNLAWYQQKPGKAPKLLIYDATKLASGVPSRFSGSGSGTDYTLTISSLQPEDFATYYCQHFWGTPLTFGQGTKVEIKR
10.8 | 0.00398 | 368000 | 0.898 | 0.000262 | 292000 | Fab0072-siRNA conjugate (Fab, V domains shown, siRNA-linker on a reduced cysteine; chain and residue not stated, also called Fab0072 (BLI conjugate columns)) VH: EVQLVESGGGLVQPGGSLRLSCATSGYTFNSYWMHWVRQAPGKGLEWVAEINPTNGRFNYIEKFKSRITLSVDKSKSTVYLQMNSLRAEDTAVYYCARGTRAYHYWGQGTLVTVSS VL: DIQLTQSPSSLSASVGDRVTITCRASDNLYRNLAWYQQKPGKAPKLLIYDARNLASGVPSRFSGSGSGTDYTLTISSLQPEDFATYYCQHFWGTPLTFGQGTKVEIKR
9.58 | 0.00245 | 256000 | 5.45 | 0.00164 | 301000 | Fab0069-siRNA conjugate (Fab, V domains shown, siRNA-linker on a reduced cysteine; chain and residue not stated, also called Fab0069 (BLI conjugate columns)) VH: EVQLVESGGGLVQPGGSLRLSCATSGYTFTSYWVHWVRQAPGKGLEWVAEINPTNGRSNYIEKFKSRITLSVDKSKSTVYLQMNSLRAEDTAVYYCARGTRAYHYWGQGTLVTVSS VL: DIQLTQSPSSLSASVGDRVTITCRASDGLYSNLAWYQQKPGKAPKLLIYDATKLASGVPSRFSGSGSGTDYTLTISSLQPEDFATYYCQHFWGTPLTFGQGTKVEIKR
